The experiment deals with Rpt6 (human, UniProt P62195 1-406). In words: cryo-EM structure.

The values that follow come from article doi:10.1101/419051 (bioRxiv, 2018).

B1: α2 subunit of the CP (natural protein)
chain: MAERGYSFSLTTFSPSGKLVQIEYALAAVAGGAPSVGIKAANGVVLATEKKQKSILYDERSVHKVEPITKHIGLVYSGMGPDYRVLVHRARKLAQQYYLVYQEPIPTAQLVQRVASVMQEYTQSGGVRPFGVSLLICGWNEGRPYLFQSDPSGAYFAWKATAMGKNYVNGKTFLEKRYNEDLELEDAIHTAILTLKESFEGQMTEDNIEVGICNEAGFRRLTPTEVKDYLAAIA
Consider B1, for which the binding result is recorded as “binds”.

B2: α3 subunit of the CP (natural protein)
chain: MSRRYDSRTTIFSPEGRLYQVEYAMEAIGHAGTCLGILANDGVLLAAERRNIHKLLDEVFFSEKIYKLNEDMACSVAGITSDANVLTNELRLIAQRYLLQYQEPIPCEQLVTALCDIKQAYTQFGGKRPFGVSLLYIGWDKHYGFQLYQSDPSGNYGGWKATCIGNNSAAAVSMLKQDYKEGEMTLKSALALAIKVLNKTMDVSKLSAEKVEIATLTRENGKTVIRVLKQKEVEQLIKKHEEEEAKAEREKKEKEQKEKDK
For the molecule B2, the binding result is “binds”.
